In paper PMC3686915:

Molecular target: NFATc2 full length;cJun full length (;, UniProt Q13469-2;P05412 1-921;1-331, |)
Test: DNA pull-down, Western blot

Does GATAATATTTTTCCAGAATTACACAAATTCTGGAAAAATATTATC (structured_DNA, 5' biotin) [-45 NFAT hairpin] bind?
Result: binds
